For one assay, the target named is obscurin (UniProt Q5VST9). Conditions: cited from earlier work.
Another assay has as its target MBP-sAnk1(29-155) D111R (UniProt P16157). As to the kind of experiment: SPR. For orientation: SPR reads the build-up and loss of mass on a sensor chip optically.
The next assay addresses MBP-sAnk1(29-155) (UniProt P16157). As to the kind of experiment: SPR.

With small ankyrin 1 (from UniProt P16157), the Kd (usually the constant that tells how readily two partners part at equilibrium) in the assay with obscurin was 130 nM. In the case of “GST-Obsc(6316-6436) K6337E (domain or fragment)”, the ratio of binding to sAnk1-D111R over binding to wild type sAnk1 with MBP-sAnk1(29-155) D111R was found to be 1.7. Consider “GST-Obsc(6316-6436) K6338A (domain or fragment)”, for which the ratio of binding to sAnk1-D111R over binding to wild type sAnk1 with MBP-sAnk1(29-155) D111R came out at 1.7.

Take “GST-Obsc(6316-6436) E6327A (domain or fragment)”: the peak binding relative to wild type with MBP-sAnk1(29-155) is 40 % of control.

In the case of “GST-Obsc(6316-6436) E6329A (domain or fragment)”, the peak binding relative to wild type with MBP-sAnk1(29-155) is 40 % of control.

“GST-Obsc(6316-6436) K6338E (domain or fragment)”: the ratio of binding to sAnk1-D111R over binding to wild type sAnk1 in the assay with MBP-sAnk1(29-155) D111R was 3.7. With “GST-Obsc(6316-6436) with the two N-terminal glutamates changed to alanines (E6327A, E6329A) (domain or fragment)”, the peak binding relative to wild type in the assay with MBP-sAnk1(29-155) was 10 % of control. As for “GST-Obsc(6316-6436), wild type (domain or fragment)”, the ratio of binding to sAnk1-D111R over binding to wild type sAnk1 with MBP-sAnk1(29-155) D111R turned out to be 1.7.

Source of the values: publication PMC3367564.
